Numbering of substitutions follows the chain as printed.
T1: TPBG-His (UniProt Q13641 32-355, limits assumed)
T1 construct: probably the human protein, the same as m24; also called TPBG-His antigen; TPBG-His protein; not shown: His tag
T1 sequence (looked up): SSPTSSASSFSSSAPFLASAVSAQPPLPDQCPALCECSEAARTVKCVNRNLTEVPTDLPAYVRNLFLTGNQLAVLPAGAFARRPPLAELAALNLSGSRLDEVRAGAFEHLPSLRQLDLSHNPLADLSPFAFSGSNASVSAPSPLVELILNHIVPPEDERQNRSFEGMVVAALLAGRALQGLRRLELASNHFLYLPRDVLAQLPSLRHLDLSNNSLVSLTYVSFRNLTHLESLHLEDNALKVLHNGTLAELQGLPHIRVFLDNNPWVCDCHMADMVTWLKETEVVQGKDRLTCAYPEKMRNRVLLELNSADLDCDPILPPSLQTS

T2: 5T4 EDC-Fc (UniProt Q13641 32-355)
T2 construct: domain: EDC; Printed with molecular weight 65-120 kD; not shown: Fc part
T2 sequence (looked up): T1 sequence (looked up)

T3: mouse 5T4 antigen (TPBG-His, mouse) (mouse, UniProt Q9Z0L0 32-361, limits assumed)
T3 construct: One of the '3 different species of TPBG-His' coated in the cross reactivity ELISA; also called mouse TPBG-His; not shown: His tag
T3 sequence (looked up): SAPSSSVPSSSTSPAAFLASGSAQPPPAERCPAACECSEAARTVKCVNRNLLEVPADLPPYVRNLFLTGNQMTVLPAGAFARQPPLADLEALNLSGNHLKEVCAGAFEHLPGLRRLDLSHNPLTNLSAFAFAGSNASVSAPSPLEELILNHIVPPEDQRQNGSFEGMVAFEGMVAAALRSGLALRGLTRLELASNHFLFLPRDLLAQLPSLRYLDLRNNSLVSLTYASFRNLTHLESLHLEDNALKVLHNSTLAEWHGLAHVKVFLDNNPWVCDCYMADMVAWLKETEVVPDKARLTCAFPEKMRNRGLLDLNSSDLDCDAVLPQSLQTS

B1: hB5-2-10 (antibody, human IgG1, kappa)
heavy: not shown
light: DIQMTQSPSSLSASVGDRVTISCRASQDISNYLNWYQQKPGKVPKLLIYHTSILHSGVPSRFSGSGSGTDYSLTISSLQPEDVATYFCQQGDTVPLTFGGGTKVEIKRTVAAPSVFIFPPSDEQLKSGTASVVCLLNNFYPREAKVQWKVDNALQSGNSQESVTEQDSKDSTYSLSSTLTLSKADYEKHKVYACEVTHQGLSSPVTKSFNRGEC
notes: Humanized IgG1 kappa; also called humanized antibody hB5-2-10
B2: antibody B5 (antibody, V domains shown)
VH: EVQLVESGGGLVKPGGSLKLSCAASGFTFRNYAMSWVRQSPDKRLEWVAEISTGGSYTYYPDTVTGRFTISRDNAKNTLYLEMSSLRSEDTAMYYCAFYYYGSSYSMDYWGQGTSVTVSS
VL: DIQMTQTTSSLSASLGDRVTISCRASQDISNYLNWYQQKPDGTVKLLIYHTSILHSGVPSRFSGSGSGTDYSLTISNLEQEDIATYFCQQGDTVPLTFGAGTKLELK
notes: Monoclonal antibody from hybridoma of immunized BALB/c mice
B3: hB5-2-12 (antibody, human IgG1, kappa)
heavy: not shown
light: B1 light with V43A, V83F
notes: Humanized IgG1 kappa
B4: hB5-2-9 (antibody, human IgG1, kappa)
heavy: not shown
light: B1 light with V43A, V83I
notes: Humanized IgG1 kappa
B5: hB5-2-2 (antibody, human IgG1, kappa, V domains shown)
VH: EVQLVESGGGLVQPGGSLRLSCAASGFTFRNYAMSWVRQAPGKGLEWVAEISTGGSYTYYPDTVTGRFTISRDNAKNSLYLQMNSLRAEDTAVYYCAFYYYGSSYSMDYWGQGTLVTVSS
VL: DIQMTQSPSSLSASVGDRVTISCRASQDISNYLNWYQQKPGKVPKLLIYHTSILHSGVPSRFSGSGSGTDYSLTISSLQPEDVATYFCQQGDTVPLTFGGGTKVEIKR
notes: Humanized IgG1 kappa
B6: hB5-2-7 (antibody, human IgG1, kappa, V domains shown)
VH: B5 VH with A75S, S78T
VL: B5 VL with S7T, P8T, Y36F, V43A, L46S, R61K, V83F
notes: Humanized IgG1 kappa
B7: hB5-2-11 (antibody, human IgG1, kappa)
heavy: not shown
light: B1 light with S7T, P8T, Y36F, V43A, L46S, R61K, V83F
notes: Humanized IgG1 kappa
B8: hB5-2-17 (antibody, human IgG1, kappa)
heavy: not shown
light: B1 light with V43A, V83I
notes: Humanized IgG1 kappa
B9: hB5-2-5 (antibody, human IgG1, kappa, V domains shown)
VH: B5 VH with A75S, S78T
VL: B5 VL with V43A, V83I
notes: Humanized IgG1 kappa
B10: hB5-2-20 (antibody, human IgG1, kappa)
heavy: not shown
light: B1 light with V43A, V83F
notes: Humanized IgG1 kappa
B11: hB5-2-13 (antibody, human IgG1, kappa, V domains shown)
VH: B5 VH with L11V, G16R, A75S, S78T, N84S
VL: B5 VL with V43A, V83I
notes: Humanized IgG1 kappa
B12: hB5-2-14 (antibody, human IgG1, kappa, V domains shown)
VH: B5 VH with L11V, G16R, A75S, S78T, N84S
VL: B5 VL
notes: Humanized IgG1 kappa
B13: hB5-2-1 (antibody, human IgG1, kappa, V domains shown)
VH: B5 VH
VL: B5 VL with V43A, V83I
notes: Humanized IgG1 kappa
B14: hB5-2-18 (antibody, human IgG1, kappa)
heavy: not shown
light: B1 light
notes: Humanized IgG1 kappa
B15: hB5-2-19 (antibody, human IgG1, kappa)
heavy: not shown
light: B1 light with S7T, P8T, Y36F, V43A, L46S, R61K, V83F
notes: Humanized IgG1 kappa
B16: hB5-2-8 (antibody, human IgG1, kappa, V domains shown)
VH: B5 VH with A75S, S78T
VL: B5 VL with V43A, V83F
notes: Humanized IgG1 kappa
B17: hB5-2-4 (antibody, human IgG1, kappa, V domains shown)
VH: B5 VH
VL: B5 VL with V43A, V83F
notes: Humanized IgG1 kappa
B18: hB5-2-6 (antibody, human IgG1, kappa, V domains shown)
VH: B5 VH with A75S, S78T
VL: B5 VL
notes: Humanized IgG1 kappa
B19: hB5-2-16 (antibody, human IgG1, kappa, V domains shown)
VH: B5 VH with L11V, G16R, A75S, S78T, N84S
VL: B5 VL with V43A, V83F
notes: Humanized IgG1 kappa
B20: hB5-2-3 (antibody, human IgG1, kappa, V domains shown)
VH: B5 VH
VL: B5 VL with S7T, P8T, Y36F, V43A, L46S, R61K, V83F
notes: Humanized IgG1 kappa
B21: hB5-2-15 (antibody, human IgG1, kappa, V domains shown)
VH: B5 VH with L11V, G16R, A75S, S78T, N84S
VL: B5 VL with S7T, P8T, Y36F, V43A, L46S, R61K, V83F
notes: Humanized IgG1 kappa

Target: T1, TPBG-His
Assay: ELISA, TPBG-His coated at 1 ug/ml, anti-human IgG Fc HRP detection

Row | EC50 [ng/mL] | Binder
1 | 2.8 | B1

Target: T2, 5T4 EDC-Fc
Assay: SPR (Biacore), 5T4 EDC-Fc amine-coupled to CM5, antibody as analyte, 1:2 model

Row | Kd [nM] | koff [s⁻¹] | kon [M⁻¹ s⁻¹] | Binder
2 | 0.018 | 1.45e-05 | 803000 | B2

Target: T1, TPBG-His
Assay: SPR (Biacore 8K), antibody captured on anti-human antibody CM5 chip, TPBG-His 300 nM, 1:1 model

Row | Kd [nM] | koff [s⁻¹] | kon [M⁻¹ s⁻¹] | Binder
3 | 0.785 | 0.000298 | 380000 | B3
4 | 0.927 | 0.000278 | 299000 | B4
5 | 2.36 | 0.000527 | 223000 | B5
6 | 0.869 | 0.000342 | 393000 | B6
7 | 1.39 | 0.000431 | 310000 | B7
8 | 0.902 | 0.000317 | 351000 | B8
9 | 0.827 | 0.000279 | 337000 | B9
10 | 0.95 | 0.000302 | 318000 | B10
11 | 2.31 | 0.000487 | 211000 | B1
12 | 0.721 | 0.000313 | 434000 | B11
13 | 1.74 | 0.000774 | 445000 | B12
14 | 1.11 | 0.000388 | 351000 | B13
15 | 2.07 | 0.00061 | 294000 | B14
16 | 0.88 | 0.000348 | 396000 | B15
17 | 0.95 | 0.000302 | 318000 | B16
18 | 0.845 | 0.000298 | 353000 | B17
19 | 1.53 | 0.000497 | 326000 | B18
20 | 0.634 | 0.000347 | 547000 | B19
21 | 1.87 | 0.000681 | 364000 | B20
22 | 1.95 | 0.000632 | 324000 | B21

Target: T1, TPBG-His
Assay: SPR (Biacore), TPBG-His amine-coupled to CM5, antibody as analyte, 1:1 model

Row | Kd [nM] | koff [s⁻¹] | kon [M⁻¹ s⁻¹] | Binder
23 | 2.92 | 0.000627 | 215000 | B1

Target: T3, mouse 5T4 antigen (TPBG-His, mouse)
Assay: ELISA, TPBG-His coated at 1 ug/ml

Row | Binder | binding result
24 | B1 | no binding (tested: highest concentration tested 20000 ng/ml)

— patent EP4692126A1 (Sound Biopharmaceuticals Co. Ltd., dated 2026)
